Experimental data: publication PMC9482650, “Quantitative fragmentomics allow affinity mapping of interactomes” (Nature Communications, 2022)

T1: DLG3_2, Q92796
T1 sequence (Q92796 221-321, limits assumed, looked up): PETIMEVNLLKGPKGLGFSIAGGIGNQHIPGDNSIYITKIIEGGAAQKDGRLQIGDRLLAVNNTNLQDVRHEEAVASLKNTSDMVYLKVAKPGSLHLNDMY

T2: SNTA1, Q13424
T2 sequence (Q13424 82-180, limits assumed, looked up): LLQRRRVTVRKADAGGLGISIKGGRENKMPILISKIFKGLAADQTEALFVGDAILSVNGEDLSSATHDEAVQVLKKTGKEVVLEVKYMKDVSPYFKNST

T3: LIN7B, Q9HAP6
T3 sequence (Q9HAP6 88-185, limits assumed, looked up): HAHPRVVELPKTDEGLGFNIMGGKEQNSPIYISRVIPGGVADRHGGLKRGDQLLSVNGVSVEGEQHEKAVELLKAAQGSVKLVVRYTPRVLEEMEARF

T4: RHPN1, Q8TCX5
T4 sequence (Q8TCX5 508-602, limits assumed, looked up): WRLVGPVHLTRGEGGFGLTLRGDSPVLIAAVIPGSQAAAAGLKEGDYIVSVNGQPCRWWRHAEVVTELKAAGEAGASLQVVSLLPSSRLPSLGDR

T5: HTRA3, P83110
T5 sequence (P83110 354-453, limits assumed, looked up): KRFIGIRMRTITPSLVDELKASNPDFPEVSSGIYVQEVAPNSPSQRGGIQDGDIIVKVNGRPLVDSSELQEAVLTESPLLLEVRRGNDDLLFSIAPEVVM

T6: NHERF3_3, Q5T2W1
T6 sequence (Q5T2W1 238-333, limits assumed, looked up): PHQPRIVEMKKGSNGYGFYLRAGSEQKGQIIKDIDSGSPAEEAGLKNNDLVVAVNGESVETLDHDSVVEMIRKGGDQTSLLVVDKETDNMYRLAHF

T7: APBA1_1, Q02410
T7 sequence (Q02410 651-752, limits assumed, looked up): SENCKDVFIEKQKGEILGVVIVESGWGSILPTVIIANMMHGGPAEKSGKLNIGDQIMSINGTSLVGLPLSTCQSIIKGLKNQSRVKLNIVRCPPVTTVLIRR

T8: ARHGEF11, O15085
T8 sequence (O15085 42-136, limits assumed, looked up): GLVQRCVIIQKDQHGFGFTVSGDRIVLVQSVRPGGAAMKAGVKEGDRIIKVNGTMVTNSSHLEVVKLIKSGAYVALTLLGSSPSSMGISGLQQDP

T9: FRMPD1, Q5SYB0
T9 sequence (Q5SYB0 52-145, limits assumed, looked up): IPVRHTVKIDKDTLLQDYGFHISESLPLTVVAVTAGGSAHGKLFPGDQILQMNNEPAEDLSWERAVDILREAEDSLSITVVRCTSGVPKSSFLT


These binders were tested against FRMPD2_3, Q68DX3 (assay: holdup assay). Conditions: plain residues with an end cap or a label only (N-terminal biotin on a linker: ado-ado).
FRMPD2_3, Q68DX3, sequence (Q68DX3 1073-1166): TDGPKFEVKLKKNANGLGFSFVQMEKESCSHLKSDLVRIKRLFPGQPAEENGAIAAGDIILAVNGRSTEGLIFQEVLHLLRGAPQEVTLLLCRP
Design: key: below the threshold = too weak to quantify, mostly under pKd 3.1 to 4

Binder	pKd
RHGSCVETSL [TMEM151B, Q8IW70]	below the threshold
QMNQTLPVQV [EPHB3, P54753]	below the threshold

Each binder was assayed against Inadl_10, Q8NI35 (assay: holdup assay). Conditions: plain residues with an end cap or a label only (N-terminal biotin on a linker: ado-ado).
Inadl_10, Q8NI35, sequence (Q8NI35 1673-1763): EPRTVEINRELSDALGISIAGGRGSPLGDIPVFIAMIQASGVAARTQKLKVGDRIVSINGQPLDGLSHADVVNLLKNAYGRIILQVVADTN
Design: key: below the threshold = too weak to quantify, mostly under pKd 3.1 to 4

Binder	pKd
RHGSCVETSL [TMEM151B, Q8IW70]	below the threshold
QMNQTLPVQV [EPHB3, P54753]	below the threshold

The binders below were run against T1, DLG3_2, Q92796 (assay: holdup assay). Conditions: plain residues with an end cap or a label only (N-terminal biotin on a linker: ado-ado).
Design: key: below the threshold = too weak to quantify, mostly under pKd 3.1 to 4

Binder	pKd
RHGSCVETSL [TMEM151B, Q8IW70]	4.53
QMNQTLPVQV [EPHB3, P54753]	below the threshold

Each binder was assayed against T2, SNTA1, Q13424 (assay: holdup assay). Conditions: plain residues with an end cap or a label only (N-terminal biotin on a linker: ado-ado).
Design: key: below the threshold = too weak to quantify, mostly under pKd 3.1 to 4

Binder	pKd
RHGSCVETSL [TMEM151B, Q8IW70]	4.82
QMNQTLPVQV [EPHB3, P54753]	below the threshold

Each binder was assayed against NHERF4_4, Q86UT5 (assay: holdup assay). Conditions: plain residues with an end cap or a label only (N-terminal biotin on a linker: ado-ado).
NHERF4_4, Q86UT5, sequence (Q86UT5 464-550): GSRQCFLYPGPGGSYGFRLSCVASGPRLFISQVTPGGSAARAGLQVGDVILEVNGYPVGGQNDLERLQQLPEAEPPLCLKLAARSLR
Design: key: below the threshold = too weak to quantify, mostly under pKd 3.1 to 4

Binder	pKd
RHGSCVETSL [TMEM151B, Q8IW70]	below the threshold
QMNQTLPVQV [EPHB3, P54753]	3.92

Each binder was assayed against Inadl_6, Q8NI35 (assay: holdup assay). Conditions: plain residues with an end cap or a label only (N-terminal biotin on a linker: ado-ado).
Inadl_6, Q8NI35, sequence (Q8NI35 1058-1167): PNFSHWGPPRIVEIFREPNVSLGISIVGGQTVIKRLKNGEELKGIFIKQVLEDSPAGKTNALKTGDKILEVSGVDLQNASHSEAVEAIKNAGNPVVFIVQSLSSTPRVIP
Design: key: below the threshold = too weak to quantify, mostly under pKd 3.1 to 4

Binder	pKd
RHGSCVETSL [TMEM151B, Q8IW70]	4.31
QMNQTLPVQV [EPHB3, P54753]	below the threshold

What follows are binders tested against LNX1_2, Q8TBB1 (assay: holdup assay). Conditions: plain residues with an end cap or a label only (N-terminal biotin on a linker: ado-ado).
LNX1_2, Q8TBB1, sequence (Q8TBB1 371-470): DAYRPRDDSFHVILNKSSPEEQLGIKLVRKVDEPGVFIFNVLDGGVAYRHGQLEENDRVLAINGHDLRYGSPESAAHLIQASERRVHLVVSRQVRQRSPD
Design: key: below the threshold = too weak to quantify, mostly under pKd 3.1 to 4

Binder	pKd
RHGSCVETSL [TMEM151B, Q8IW70]	below the threshold
QMNQTLPVQV [EPHB3, P54753]	4.53

What follows are binders tested against T3, LIN7B, Q9HAP6 (assay: holdup assay). Conditions: plain residues with an end cap or a label only (N-terminal biotin on a linker: ado-ado).
Design: key: below the threshold = too weak to quantify, mostly under pKd 3.1 to 4

Binder	pKd
RHGSCVETSL [TMEM151B, Q8IW70]	4.45
QMNQTLPVQV [EPHB3, P54753]	below the threshold

Each binder was assayed against MAGI1_2, Q96QZ7 (assay: holdup assay). Conditions: plain residues with an end cap or a label only (N-terminal biotin on a linker: ado-ado).
MAGI1_2, Q96QZ7, sequence (Q96QZ7 456-580): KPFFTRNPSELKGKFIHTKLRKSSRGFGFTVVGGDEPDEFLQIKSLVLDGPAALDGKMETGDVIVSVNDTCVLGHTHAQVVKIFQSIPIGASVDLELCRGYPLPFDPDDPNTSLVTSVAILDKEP
Design: key: below the threshold = too weak to quantify, mostly under pKd 3.1 to 4

Binder	pKd
RHGSCVETSL [TMEM151B, Q8IW70]	3.76
QMNQTLPVQV [EPHB3, P54753]	below the threshold

What follows are binders tested against GIPC2, Q8TF65 (assay: holdup assay). Conditions: plain residues with an end cap or a label only (N-terminal biotin on a linker: ado-ado).
GIPC2, Q8TF65, sequence (Q8TF65 112-203): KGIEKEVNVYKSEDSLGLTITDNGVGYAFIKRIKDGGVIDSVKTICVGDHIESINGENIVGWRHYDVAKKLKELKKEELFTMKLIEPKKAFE
Design: key: below the threshold = too weak to quantify, mostly under pKd 3.1 to 4

Binder	pKd
RHGSCVETSL [TMEM151B, Q8IW70]	3.92
QMNQTLPVQV [EPHB3, P54753]	below the threshold

The binders below were run against Inadl_8, Q8NI35 (assay: holdup assay). Conditions: plain residues with an end cap or a label only (N-terminal biotin on a linker: ado-ado).
Inadl_8, Q8NI35, sequence (Q8NI35 1425-1530): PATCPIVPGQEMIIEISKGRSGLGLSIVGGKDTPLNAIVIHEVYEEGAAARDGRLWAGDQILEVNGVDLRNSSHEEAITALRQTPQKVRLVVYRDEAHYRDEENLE
Design: key: below the threshold = too weak to quantify, mostly under pKd 3.1 to 4

Binder	pKd
RHGSCVETSL [TMEM151B, Q8IW70]	below the threshold
QMNQTLPVQV [EPHB3, P54753]	3.55

What follows are binders tested against GORASP1, Q9BQQ3 (assay: holdup assay). Conditions: plain residues with an end cap or a label only (N-terminal biotin on a linker: ado-ado).
GORASP1, Q9BQQ3, sequence (Q9BQQ3 1-208): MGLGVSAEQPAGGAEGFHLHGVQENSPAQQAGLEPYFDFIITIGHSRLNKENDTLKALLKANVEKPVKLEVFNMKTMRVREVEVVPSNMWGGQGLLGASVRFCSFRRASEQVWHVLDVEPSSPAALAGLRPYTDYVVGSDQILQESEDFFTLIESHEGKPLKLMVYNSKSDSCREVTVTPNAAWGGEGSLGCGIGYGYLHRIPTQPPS
Design: key: below the threshold = too weak to quantify, mostly under pKd 3.1 to 4

Binder	pKd
RHGSCVETSL [TMEM151B, Q8IW70]	below the threshold
QMNQTLPVQV [EPHB3, P54753]	3.58

These binders were tested against PARD3_3, Q8TEW0 (assay: holdup assay). Conditions: plain residues with an end cap or a label only (N-terminal biotin on a linker: ado-ado).
PARD3_3, Q8TEW0, sequence (Q8TEW0 582-685): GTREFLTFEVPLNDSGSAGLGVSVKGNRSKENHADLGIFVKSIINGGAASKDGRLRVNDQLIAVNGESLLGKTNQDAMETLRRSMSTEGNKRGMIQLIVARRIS
Design: key: below the threshold = too weak to quantify, mostly under pKd 3.1 to 4

Binder	pKd
RHGSCVETSL [TMEM151B, Q8IW70]	3.59
QMNQTLPVQV [EPHB3, P54753]	3.51

These binders were tested against MAGI2_3, Q86UL8 (assay: holdup assay). Conditions: plain residues with an end cap or a label only (N-terminal biotin on a linker: ado-ado).
MAGI2_3, Q86UL8, sequence (Q86UL8 600-682): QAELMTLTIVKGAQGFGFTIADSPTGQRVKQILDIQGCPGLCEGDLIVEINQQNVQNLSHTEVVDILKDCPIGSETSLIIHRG
Design: key: below the threshold = too weak to quantify, mostly under pKd 3.1 to 4

Binder	pKd
RHGSCVETSL [TMEM151B, Q8IW70]	3.5
QMNQTLPVQV [EPHB3, P54753]	3.64

Each binder was assayed against T4, RHPN1, Q8TCX5 (assay: holdup assay). Conditions: plain residues with an end cap or a label only (N-terminal biotin on a linker: ado-ado).
Design: key: below the threshold = too weak to quantify, mostly under pKd 3.1 to 4

Binder	pKd
RHGSCVETSL [TMEM151B, Q8IW70]	5.02
QMNQTLPVQV [EPHB3, P54753]	below the threshold

What follows are binders tested against LNX1_3, Q8TBB1 (assay: holdup assay). Conditions: plain residues with an end cap or a label only (N-terminal biotin on a linker: ado-ado).
LNX1_3, Q8TBB1, sequence (Q8TBB1 500-596): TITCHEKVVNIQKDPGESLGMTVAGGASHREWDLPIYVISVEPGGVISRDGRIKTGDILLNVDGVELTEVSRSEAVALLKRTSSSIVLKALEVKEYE
Design: key: below the threshold = too weak to quantify, mostly under pKd 3.1 to 4

Binder	pKd
RHGSCVETSL [TMEM151B, Q8IW70]	below the threshold
QMNQTLPVQV [EPHB3, P54753]	3.61

What follows are binders tested against Inadl_1, Q8NI35 (assay: holdup assay). Conditions: plain residues with an end cap or a label only (N-terminal biotin on a linker: ado-ado).
Inadl_1, Q8NI35, sequence (Q8NI35 113-229): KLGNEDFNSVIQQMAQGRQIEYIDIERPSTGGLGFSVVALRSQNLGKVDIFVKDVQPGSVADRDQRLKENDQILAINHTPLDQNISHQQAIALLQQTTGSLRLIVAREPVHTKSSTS
Design: key: below the threshold = too weak to quantify, mostly under pKd 3.1 to 4

Binder	pKd
RHGSCVETSL [TMEM151B, Q8IW70]	below the threshold
QMNQTLPVQV [EPHB3, P54753]	below the threshold

The binders below were run against T5, HTRA3, P83110 (assay: holdup assay). Conditions: plain residues with an end cap or a label only (N-terminal biotin on a linker: ado-ado).
Design: key: below the threshold = too weak to quantify, mostly under pKd 3.1 to 4

Binder	pKd
RHGSCVETSL [TMEM151B, Q8IW70]	below the threshold
QMNQTLPVQV [EPHB3, P54753]	below the threshold

The binders below were run against T6, NHERF3_3, Q5T2W1 (assay: holdup assay). Conditions: plain residues with an end cap or a label only (N-terminal biotin on a linker: ado-ado).
Design: key: below the threshold = too weak to quantify, mostly under pKd 3.1 to 4

Binder	pKd
RHGSCVETSL [TMEM151B, Q8IW70]	below the threshold
QMNQTLPVQV [EPHB3, P54753]	below the threshold

Each binder was assayed against Inadl_4, Q8NI35 (assay: holdup assay). Conditions: plain residues with an end cap or a label only (N-terminal biotin on a linker: ado-ado).
Inadl_4, Q8NI35, sequence (Q8NI35 547-651): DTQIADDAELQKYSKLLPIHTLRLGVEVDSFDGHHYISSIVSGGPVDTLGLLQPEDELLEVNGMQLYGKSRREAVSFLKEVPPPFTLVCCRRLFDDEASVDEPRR
Design: key: below the threshold = too weak to quantify, mostly under pKd 3.1 to 4

Binder	pKd
RHGSCVETSL [TMEM151B, Q8IW70]	below the threshold
QMNQTLPVQV [EPHB3, P54753]	below the threshold

These binders were tested against DLG4_2, P78352 (assay: holdup assay). Conditions: plain residues with an end cap or a label only (N-terminal biotin on a linker: ado-ado).
DLG4_2, P78352, sequence (P78352 155-259): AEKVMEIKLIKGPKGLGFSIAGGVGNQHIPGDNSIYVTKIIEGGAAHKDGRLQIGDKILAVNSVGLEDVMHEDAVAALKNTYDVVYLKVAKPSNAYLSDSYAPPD
Design: key: below the threshold = too weak to quantify, mostly under pKd 3.1 to 4

Binder	pKd
RHGSCVETSL [TMEM151B, Q8IW70]	4.59
QMNQTLPVQV [EPHB3, P54753]	3.66

These binders were tested against MAGI3_2, Q5TCQ9 (assay: holdup assay). Conditions: plain residues with an end cap or a label only (N-terminal biotin on a linker: ado-ado).
MAGI3_2, Q5TCQ9, sequence (Q5TCQ9 398-503): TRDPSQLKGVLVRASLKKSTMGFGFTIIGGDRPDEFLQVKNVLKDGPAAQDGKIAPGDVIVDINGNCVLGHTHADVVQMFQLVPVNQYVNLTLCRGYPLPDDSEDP
Design: key: below the threshold = too weak to quantify, mostly under pKd 3.1 to 4

Binder	pKd
RHGSCVETSL [TMEM151B, Q8IW70]	4.06
QMNQTLPVQV [EPHB3, P54753]	below the threshold

The binders below were run against MAST2, Q6P0Q8 (assay: holdup assay). Conditions: plain residues with an end cap or a label only (N-terminal biotin on a linker: ado-ado).
MAST2, Q6P0Q8, sequence (Q6P0Q8 1099-1202): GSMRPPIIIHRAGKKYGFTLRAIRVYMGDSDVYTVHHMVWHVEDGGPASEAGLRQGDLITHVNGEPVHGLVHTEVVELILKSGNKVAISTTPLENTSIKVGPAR
Design: key: below the threshold = too weak to quantify, mostly under pKd 3.1 to 4

Binder	pKd
RHGSCVETSL [TMEM151B, Q8IW70]	5.64
QMNQTLPVQV [EPHB3, P54753]	4.1

What follows are binders tested against T7, APBA1_1, Q02410 (assay: holdup assay). Conditions: plain residues with an end cap or a label only (N-terminal biotin on a linker: ado-ado).
Design: key: below the threshold = too weak to quantify, mostly under pKd 3.1 to 4

Binder	pKd
RHGSCVETSL [TMEM151B, Q8IW70]	below the threshold
QMNQTLPVQV [EPHB3, P54753]	below the threshold

What follows are binders tested against T8, ARHGEF11, O15085 (assay: holdup assay). Conditions: plain residues with an end cap or a label only (N-terminal biotin on a linker: ado-ado).
Design: key: below the threshold = too weak to quantify, mostly under pKd 3.1 to 4

Binder	pKd
RHGSCVETSL [TMEM151B, Q8IW70]	4.41
QMNQTLPVQV [EPHB3, P54753]	4.36

What follows are binders tested against T9, FRMPD1, Q5SYB0 (assay: holdup assay). Conditions: plain residues with an end cap or a label only (N-terminal biotin on a linker: ado-ado).
Design: key: below the threshold = too weak to quantify, mostly under pKd 3.1 to 4

Binder	pKd
RHGSCVETSL [TMEM151B, Q8IW70]	below the threshold
QMNQTLPVQV [EPHB3, P54753]	below the threshold

The binders below were run against GOPC, Q9HD26 (assay: holdup assay). Conditions: plain residues with an end cap or a label only (N-terminal biotin on a linker: ado-ado).
Design: key: below the threshold = too weak to quantify, mostly under pKd 3.1 to 4

Binder	pKd
RHGSCVETSL [TMEM151B, Q8IW70]	4.41
QMNQTLPVQV [EPHB3, P54753]	3.58

What follows are binders tested against FRMPD2_1, Q68DX3 (assay: holdup assay). Conditions: plain residues with an end cap or a label only (N-terminal biotin on a linker: ado-ado).
FRMPD2_1, Q68DX3, sequence (Q68DX3 770-861): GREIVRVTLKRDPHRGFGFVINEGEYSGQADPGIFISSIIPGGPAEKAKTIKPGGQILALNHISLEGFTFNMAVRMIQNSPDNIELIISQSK
Design: key: below the threshold = too weak to quantify, mostly under pKd 3.1 to 4

Binder	pKd
RHGSCVETSL [TMEM151B, Q8IW70]	below the threshold
QMNQTLPVQV [EPHB3, P54753]	4.36
